From patent US20130195866

Biological target: T1, NFATc4 (nuclear factor of activated T cells), endogenous in mouse cortical neurons (UniProt Q8K120)
T1 sequence: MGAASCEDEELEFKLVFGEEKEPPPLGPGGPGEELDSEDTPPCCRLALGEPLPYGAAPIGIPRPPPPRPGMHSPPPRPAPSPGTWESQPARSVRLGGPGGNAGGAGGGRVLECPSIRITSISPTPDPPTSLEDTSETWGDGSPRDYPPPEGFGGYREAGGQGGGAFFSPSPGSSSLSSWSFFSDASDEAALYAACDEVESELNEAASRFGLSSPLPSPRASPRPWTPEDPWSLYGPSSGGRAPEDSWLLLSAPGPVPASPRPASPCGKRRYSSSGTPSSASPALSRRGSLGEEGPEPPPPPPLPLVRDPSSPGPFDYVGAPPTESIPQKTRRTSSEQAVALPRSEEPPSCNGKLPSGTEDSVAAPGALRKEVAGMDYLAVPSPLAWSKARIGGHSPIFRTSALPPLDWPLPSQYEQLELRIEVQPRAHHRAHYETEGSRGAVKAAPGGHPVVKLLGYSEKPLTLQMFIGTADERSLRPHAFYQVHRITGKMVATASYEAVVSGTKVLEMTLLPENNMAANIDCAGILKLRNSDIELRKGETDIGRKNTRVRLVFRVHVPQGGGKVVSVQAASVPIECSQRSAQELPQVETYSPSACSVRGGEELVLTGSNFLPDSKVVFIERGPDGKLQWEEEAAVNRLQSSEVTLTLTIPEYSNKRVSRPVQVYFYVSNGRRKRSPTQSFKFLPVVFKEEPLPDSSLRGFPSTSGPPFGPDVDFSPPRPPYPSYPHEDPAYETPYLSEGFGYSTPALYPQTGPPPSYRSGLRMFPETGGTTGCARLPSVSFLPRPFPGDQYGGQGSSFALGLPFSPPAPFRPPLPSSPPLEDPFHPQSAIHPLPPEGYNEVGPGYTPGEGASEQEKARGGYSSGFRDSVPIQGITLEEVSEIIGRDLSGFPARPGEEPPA

HA-tagged constitutively active calcineurin, CaNCA (mouse CaN amino acid residues 1-399, 45 kDa form)
NFATc4 nuclear distribution in neurons of injected mouse brain: CaNCA-expressing neurons showed high levels of NFATc4 nuclear distribution (data not shown)
